As a reminder, the Kd is the concentration at which binding is half-saturated. Low values mean higher affinity, high ones lower affinity.

The values that follow come from article PMC11850223.

For data set [1], the target named is T1, cis-heterodimer Hera/Hera_208-419 (Thermus thermophilus, UniProt O07897;O07897 1-510;208-419).
T1 sequence 1: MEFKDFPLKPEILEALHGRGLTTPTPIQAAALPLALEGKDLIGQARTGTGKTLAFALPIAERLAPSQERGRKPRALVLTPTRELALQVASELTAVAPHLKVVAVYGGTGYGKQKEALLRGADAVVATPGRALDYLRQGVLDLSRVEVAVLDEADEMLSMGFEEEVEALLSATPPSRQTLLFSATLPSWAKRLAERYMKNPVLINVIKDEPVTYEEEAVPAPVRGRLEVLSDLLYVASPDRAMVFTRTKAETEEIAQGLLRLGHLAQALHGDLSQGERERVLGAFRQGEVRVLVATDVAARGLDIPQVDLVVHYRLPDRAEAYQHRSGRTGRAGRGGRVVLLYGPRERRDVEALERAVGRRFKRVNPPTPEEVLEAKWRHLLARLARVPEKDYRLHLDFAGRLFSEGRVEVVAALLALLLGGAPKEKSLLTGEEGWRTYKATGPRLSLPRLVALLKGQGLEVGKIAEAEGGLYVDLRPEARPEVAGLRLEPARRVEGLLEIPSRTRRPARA
T1 sequence 2: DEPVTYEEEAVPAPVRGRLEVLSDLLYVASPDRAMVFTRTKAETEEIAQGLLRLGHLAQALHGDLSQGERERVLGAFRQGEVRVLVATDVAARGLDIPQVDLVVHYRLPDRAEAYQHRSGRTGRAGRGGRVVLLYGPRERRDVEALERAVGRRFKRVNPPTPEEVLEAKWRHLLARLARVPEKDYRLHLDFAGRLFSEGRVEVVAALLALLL
In words: stopped-flow fluorescence.

Data set [2] concerns the target T2, Hera (Thermus thermophilus, UniProt O07897 1-510).
T2 sequence: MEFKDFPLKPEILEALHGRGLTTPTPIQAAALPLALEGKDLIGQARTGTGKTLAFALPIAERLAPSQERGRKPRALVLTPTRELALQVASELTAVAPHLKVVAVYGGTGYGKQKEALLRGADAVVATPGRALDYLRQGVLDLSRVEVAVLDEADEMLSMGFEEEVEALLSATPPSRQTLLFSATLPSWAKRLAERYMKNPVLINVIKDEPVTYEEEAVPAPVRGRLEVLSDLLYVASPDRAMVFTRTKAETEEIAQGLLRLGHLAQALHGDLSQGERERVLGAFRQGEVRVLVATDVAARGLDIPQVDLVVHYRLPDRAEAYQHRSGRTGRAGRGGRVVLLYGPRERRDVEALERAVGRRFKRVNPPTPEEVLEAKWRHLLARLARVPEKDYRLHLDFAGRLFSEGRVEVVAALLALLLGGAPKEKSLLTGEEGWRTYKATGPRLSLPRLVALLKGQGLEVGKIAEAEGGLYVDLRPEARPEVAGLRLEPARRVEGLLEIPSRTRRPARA
In words: stopped-flow fluorescence.

Data set [3] addresses T3, Hera/Hera_1-419 heterodimer (Thermus thermophilus, UniProt O07897;O07897 1-510;1-419).
T3 sequence 1: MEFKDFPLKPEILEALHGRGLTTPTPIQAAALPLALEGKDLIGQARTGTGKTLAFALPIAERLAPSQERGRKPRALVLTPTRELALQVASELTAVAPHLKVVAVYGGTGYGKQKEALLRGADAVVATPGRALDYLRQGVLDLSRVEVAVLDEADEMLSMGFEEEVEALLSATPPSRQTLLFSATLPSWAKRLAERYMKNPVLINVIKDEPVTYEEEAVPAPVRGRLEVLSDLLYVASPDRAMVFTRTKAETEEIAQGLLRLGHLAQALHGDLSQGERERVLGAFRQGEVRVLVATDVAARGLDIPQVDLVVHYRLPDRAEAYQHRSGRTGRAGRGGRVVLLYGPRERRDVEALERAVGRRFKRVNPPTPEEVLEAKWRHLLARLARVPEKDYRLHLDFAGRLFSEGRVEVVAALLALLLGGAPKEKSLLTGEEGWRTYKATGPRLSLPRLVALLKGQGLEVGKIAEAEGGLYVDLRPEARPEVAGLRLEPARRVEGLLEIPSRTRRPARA
T3 sequence 2: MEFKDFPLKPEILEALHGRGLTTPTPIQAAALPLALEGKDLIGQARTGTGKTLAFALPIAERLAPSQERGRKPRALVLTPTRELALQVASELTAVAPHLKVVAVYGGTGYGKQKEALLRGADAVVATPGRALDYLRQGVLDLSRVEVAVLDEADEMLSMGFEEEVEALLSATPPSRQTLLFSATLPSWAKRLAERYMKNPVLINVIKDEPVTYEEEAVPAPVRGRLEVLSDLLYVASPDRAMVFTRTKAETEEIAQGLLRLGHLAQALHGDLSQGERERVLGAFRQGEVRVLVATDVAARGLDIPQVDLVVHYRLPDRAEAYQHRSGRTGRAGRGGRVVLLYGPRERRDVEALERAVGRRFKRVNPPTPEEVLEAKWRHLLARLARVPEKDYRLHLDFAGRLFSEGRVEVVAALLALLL
In words: fluorescence anisotropy. Background: In fluorescence polarisation assays a small probe gives low polarisation when free and higher when bound to something large.

Data set [4] addresses T4, Hera_K51Q (Thermus thermophilus, UniProt O07897 1-510, K51Q).
T4 sequence: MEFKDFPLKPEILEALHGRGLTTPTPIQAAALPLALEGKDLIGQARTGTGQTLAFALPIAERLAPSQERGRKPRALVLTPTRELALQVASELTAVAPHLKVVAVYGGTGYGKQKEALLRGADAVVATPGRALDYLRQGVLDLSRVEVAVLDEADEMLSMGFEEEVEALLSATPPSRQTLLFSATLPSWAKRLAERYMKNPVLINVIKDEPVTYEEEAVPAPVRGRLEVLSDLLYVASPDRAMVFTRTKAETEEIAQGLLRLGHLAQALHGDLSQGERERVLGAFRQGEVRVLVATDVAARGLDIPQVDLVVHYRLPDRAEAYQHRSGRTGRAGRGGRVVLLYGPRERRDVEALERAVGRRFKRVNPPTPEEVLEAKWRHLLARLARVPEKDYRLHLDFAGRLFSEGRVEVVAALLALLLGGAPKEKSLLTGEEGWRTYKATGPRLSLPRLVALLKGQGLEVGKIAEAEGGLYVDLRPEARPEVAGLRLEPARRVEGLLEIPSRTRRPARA
In words: fluorescence anisotropy.

For data set [5], the target named is T2, Hera. Description: fluorescence anisotropy.
Data set [6] deals with T5, Hera/Hera_K51Q heterodimer (Thermus thermophilus, UniProt O07897;O07897 1-510;1-510, K51Q).
T5 sequence 1: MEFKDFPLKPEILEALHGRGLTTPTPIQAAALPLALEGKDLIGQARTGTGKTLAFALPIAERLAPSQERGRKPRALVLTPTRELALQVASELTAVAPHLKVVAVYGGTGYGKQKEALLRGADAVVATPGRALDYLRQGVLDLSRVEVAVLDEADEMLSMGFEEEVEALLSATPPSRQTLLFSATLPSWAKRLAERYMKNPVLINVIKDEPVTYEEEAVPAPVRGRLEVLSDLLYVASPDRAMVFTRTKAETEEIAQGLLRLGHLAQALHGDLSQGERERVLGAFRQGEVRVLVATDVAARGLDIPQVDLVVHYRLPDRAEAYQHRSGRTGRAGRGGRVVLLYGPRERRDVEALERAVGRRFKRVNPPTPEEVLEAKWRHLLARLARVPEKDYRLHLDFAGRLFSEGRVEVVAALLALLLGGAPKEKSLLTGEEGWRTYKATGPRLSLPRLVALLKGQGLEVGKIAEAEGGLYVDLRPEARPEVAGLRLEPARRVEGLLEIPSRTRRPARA
T5 sequence 2: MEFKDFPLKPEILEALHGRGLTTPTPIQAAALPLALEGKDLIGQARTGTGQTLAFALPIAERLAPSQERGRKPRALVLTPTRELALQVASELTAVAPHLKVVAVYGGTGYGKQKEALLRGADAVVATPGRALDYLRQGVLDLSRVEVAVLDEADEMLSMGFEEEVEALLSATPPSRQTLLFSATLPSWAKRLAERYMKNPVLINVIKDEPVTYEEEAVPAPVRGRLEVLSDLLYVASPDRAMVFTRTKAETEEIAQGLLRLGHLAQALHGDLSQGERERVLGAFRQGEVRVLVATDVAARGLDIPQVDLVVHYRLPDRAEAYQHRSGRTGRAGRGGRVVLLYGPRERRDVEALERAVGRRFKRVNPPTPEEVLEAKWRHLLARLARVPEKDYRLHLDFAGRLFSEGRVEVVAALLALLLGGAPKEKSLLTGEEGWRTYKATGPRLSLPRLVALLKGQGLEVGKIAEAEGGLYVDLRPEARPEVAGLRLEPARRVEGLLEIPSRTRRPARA
In words: fluorescence anisotropy.

Data set [7] deals with T6, trans-heterodimer Hera_1-419/Hera_370-510 (Thermus thermophilus, UniProt O07897;O07897 1-419;370-510).
T6 sequence 1: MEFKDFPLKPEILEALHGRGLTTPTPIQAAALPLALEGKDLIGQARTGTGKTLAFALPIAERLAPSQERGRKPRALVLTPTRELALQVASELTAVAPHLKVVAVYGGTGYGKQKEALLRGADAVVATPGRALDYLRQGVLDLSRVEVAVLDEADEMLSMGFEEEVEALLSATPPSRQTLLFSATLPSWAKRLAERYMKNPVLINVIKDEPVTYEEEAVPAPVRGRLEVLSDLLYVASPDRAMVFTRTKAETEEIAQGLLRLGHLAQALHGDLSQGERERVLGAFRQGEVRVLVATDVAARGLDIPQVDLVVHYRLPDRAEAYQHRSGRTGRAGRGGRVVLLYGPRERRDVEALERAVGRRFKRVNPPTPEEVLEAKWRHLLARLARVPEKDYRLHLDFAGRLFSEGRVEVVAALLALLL
T6 sequence 2: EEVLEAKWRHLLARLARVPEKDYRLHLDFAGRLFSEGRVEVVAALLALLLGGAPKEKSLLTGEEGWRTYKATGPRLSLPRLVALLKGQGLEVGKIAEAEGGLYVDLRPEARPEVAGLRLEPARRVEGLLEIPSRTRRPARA
In words: fluorescence anisotropy.

Data set [8] concerns the target T1, cis-heterodimer Hera/Hera_208-419. In words: fluorescence anisotropy.

B1: fl-32/9mer (structured_RNA)
RNA 1: GCAGGUCCCAAGGGUUGGGCUGUUCGCCCAUU
RNA 2: UUGGGACCU
B1: the Kd in data set [1] came out at 1800 ± 800 nM; in data set [2], 3000 ± 1000 nM; in data set [3], 3000 ± 300 nM; in data set [4], 2100 ± 400 nM; in data set [5], 2000 ± 300 nM; in data set [6], 2500 ± 400 nM. Besides, the figures for the dissociation constant Kd in data set [7] and in data set [8] were 16000 ± 6000 nM and 1400 ± 500 nM, respectively.
